Publication doi:10.1101/2022.12.21.520923 (bioRxiv, 2022)
One block for each binder: values may come before it.

B1: His-SUMO-tagged CHC22 terminal domain (domain or fragment)
chain: MAQILPVRFQEHFQLQNLGINPANIGFSTLTMESDKFICIREKVGEQAQVTIIDMSDPMAPIRRPISAESAIMNPASKVIALKAGKTLQIFNIEMKSKMKAHTMAEEVIFWKWVSVNTVALVTETAVYHWSMEGDSQPMKMFDRHTSLVGCQVIHYRTDEYQKWLLLVGISAQQNRVVGAMQLYSVDRKVSQPIEGHAAAFAEFKMEGNAKPATLFCFAVRNPTGGKLHIIEVGQPAAGNQPFVKKAVDVFFPPEAQNDFPVAMQIGAKHGVIYLITKYGYLHLYDLESGVCICMNRISADTIFVTAPHKPTSGIIGVNKKGQVLSVCVEEDNIVNYATNVLQNPDLGLRLAVRSNLAGAEKLF
B3: full-length GST-SNX5 (natural protein)
chain: MAAVPELLQQQEEDRSKLRSVSVDLNVDPSLQIDIPDALSERDKVKFTVHTKTTLPTFQSPEFSVTRQHEDFVWLHDTLIETTDYAGLIIPPAPTKPDFDGPREKMQKLGEGEGSMTKEEFAKMKQELEAEYLAVFKKTVSSHEVFLQRLSSHPVLSKDRNFHVFLEYDQDLSVRRKNTKEMFGGFFKSVVKSADEVLFTGVKEVDDFFEQEKNFLINYYNRIKDSCVKADKMTRSHKNVADDYIHTAACLHSLALEEPTVIKKYLLKVAELFEKLRKVEGRVSSDEDLKLTELLRYYMLNIEAAKDLLYRRTKALIDYENSNKALDKARLKSKDVKLAEAHQQECCQKFEQLSESAKEELINFKRKRVAAFRKNLIEMSELEIKHARNNVSLLQSCIDLFKNN

Experiments:
Experiment in all cases: pull-down
[1] = target: T1, full-length GST-p115 (UniProt O60763 1-962)
T1 sequence: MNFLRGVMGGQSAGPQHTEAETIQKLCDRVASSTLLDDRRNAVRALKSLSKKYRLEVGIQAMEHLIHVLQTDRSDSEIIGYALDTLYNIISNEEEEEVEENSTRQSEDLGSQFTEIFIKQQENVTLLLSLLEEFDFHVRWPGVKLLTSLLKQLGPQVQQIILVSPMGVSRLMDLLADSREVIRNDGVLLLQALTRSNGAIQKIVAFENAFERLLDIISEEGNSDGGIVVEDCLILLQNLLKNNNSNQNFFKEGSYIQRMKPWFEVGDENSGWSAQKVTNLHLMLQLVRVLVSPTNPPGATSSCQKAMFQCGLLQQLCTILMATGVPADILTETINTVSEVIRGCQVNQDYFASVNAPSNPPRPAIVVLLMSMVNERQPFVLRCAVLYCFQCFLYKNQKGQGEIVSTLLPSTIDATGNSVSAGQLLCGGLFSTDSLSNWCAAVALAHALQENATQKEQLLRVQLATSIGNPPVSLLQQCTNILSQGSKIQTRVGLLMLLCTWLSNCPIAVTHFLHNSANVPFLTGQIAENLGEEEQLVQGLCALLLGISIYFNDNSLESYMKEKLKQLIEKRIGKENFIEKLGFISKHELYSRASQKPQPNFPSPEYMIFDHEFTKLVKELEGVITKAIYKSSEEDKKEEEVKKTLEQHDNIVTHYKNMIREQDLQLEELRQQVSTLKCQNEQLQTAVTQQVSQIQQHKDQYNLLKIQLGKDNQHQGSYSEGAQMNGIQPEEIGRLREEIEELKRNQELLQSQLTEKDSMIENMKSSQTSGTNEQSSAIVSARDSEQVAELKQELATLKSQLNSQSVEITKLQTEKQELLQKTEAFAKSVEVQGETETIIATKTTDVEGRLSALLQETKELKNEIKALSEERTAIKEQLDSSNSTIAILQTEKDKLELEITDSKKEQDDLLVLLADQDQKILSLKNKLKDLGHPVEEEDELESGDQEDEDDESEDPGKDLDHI

[2] = target: B3
[3] = target: T2, full-length GST-SNX5 phosphomimetic S226E mutant (human, UniProt Q9Y5X3 1-404, S226E)
T2 sequence: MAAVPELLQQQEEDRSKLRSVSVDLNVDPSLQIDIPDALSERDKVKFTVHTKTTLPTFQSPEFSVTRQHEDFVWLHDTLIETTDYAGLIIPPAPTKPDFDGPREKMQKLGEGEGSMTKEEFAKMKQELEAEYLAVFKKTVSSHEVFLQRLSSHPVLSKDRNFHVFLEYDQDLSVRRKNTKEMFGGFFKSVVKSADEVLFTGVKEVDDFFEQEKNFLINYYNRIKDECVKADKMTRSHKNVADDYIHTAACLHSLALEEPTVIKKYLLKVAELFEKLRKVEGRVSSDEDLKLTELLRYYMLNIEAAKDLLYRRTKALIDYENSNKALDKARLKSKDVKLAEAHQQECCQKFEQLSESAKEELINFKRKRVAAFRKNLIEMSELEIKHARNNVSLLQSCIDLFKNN

[4] = target: T3, His-tagged CHC22 Hub (human, UniProt P53675 1074-1640)
T3 sequence: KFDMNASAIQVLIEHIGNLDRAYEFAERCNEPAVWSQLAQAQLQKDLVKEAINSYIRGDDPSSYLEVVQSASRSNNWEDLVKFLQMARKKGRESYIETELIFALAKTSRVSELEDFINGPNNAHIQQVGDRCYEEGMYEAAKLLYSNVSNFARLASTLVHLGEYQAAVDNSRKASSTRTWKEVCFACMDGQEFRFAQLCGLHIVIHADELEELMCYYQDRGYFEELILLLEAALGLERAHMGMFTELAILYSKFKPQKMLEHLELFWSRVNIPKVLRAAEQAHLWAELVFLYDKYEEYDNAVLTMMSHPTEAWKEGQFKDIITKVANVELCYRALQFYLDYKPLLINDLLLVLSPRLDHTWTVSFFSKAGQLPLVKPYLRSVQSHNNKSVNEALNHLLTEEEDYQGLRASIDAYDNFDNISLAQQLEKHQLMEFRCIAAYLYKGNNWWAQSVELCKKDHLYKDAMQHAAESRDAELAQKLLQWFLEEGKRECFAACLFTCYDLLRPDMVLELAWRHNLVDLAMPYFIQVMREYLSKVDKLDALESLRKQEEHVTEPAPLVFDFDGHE

[5] = target: T4, full-length His-p115 (UniProt O60763 1-962)
T4 sequence: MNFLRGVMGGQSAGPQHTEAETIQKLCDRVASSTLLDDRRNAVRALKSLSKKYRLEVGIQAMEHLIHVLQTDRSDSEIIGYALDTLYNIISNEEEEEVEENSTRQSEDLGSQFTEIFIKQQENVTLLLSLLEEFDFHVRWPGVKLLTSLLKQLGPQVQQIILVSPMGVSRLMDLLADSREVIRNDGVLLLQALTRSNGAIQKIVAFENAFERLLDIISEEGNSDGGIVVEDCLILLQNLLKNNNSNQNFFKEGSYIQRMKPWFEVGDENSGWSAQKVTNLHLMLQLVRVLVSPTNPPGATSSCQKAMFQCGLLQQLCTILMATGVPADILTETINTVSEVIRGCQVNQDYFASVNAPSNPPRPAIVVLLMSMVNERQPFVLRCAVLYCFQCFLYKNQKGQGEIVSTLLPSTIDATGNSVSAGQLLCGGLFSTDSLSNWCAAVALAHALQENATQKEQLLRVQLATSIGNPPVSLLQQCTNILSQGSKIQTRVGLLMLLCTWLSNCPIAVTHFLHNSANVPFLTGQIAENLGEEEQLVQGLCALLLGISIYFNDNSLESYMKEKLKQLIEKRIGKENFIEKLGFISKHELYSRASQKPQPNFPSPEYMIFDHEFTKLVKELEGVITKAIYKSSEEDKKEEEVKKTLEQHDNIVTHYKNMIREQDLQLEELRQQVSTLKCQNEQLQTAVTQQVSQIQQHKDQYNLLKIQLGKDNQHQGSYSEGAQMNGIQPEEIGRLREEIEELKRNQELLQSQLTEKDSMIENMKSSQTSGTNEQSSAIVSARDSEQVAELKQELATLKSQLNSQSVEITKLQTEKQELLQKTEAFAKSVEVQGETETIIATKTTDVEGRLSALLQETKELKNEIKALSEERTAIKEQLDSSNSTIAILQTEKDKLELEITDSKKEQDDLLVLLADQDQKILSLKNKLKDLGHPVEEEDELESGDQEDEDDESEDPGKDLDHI

[6] = target: full-length His-tagged SNX1 (UniProt Q13596 1-522)
Chain of full-length His-tagged SNX1 (Q13596 whole entry, the tested form may be a part): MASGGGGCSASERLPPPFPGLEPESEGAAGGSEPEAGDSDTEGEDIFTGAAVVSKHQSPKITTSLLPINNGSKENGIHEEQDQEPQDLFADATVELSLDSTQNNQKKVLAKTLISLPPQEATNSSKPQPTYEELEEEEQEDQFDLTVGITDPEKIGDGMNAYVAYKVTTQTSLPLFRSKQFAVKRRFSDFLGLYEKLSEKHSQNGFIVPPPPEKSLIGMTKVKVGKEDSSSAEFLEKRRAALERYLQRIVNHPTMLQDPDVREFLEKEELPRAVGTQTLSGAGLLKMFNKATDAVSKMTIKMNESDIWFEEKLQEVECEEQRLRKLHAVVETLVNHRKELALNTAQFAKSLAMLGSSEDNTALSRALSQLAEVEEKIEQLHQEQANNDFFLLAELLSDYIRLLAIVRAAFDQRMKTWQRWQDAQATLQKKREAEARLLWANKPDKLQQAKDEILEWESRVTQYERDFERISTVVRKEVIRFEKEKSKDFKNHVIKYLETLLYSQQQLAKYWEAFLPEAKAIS

[7] = target: T5, His-SUMO CHC17 terminal domain (human, UniProt Q00610 1-364)
T5 sequence: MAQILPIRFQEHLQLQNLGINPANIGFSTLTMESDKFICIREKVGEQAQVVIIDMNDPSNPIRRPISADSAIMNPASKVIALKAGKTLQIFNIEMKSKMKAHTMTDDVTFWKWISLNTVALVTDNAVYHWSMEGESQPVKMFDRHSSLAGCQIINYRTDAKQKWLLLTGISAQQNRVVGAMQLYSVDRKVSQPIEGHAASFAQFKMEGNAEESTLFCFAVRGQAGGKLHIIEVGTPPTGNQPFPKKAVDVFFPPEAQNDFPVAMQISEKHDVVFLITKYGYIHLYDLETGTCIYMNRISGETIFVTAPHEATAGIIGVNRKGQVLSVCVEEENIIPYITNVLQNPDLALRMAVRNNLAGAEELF

[8] = target: B1

Binder: B1
binding result [1]: binds

Binder: B3
binding result [4]: binds
binding result [5]: binds
binding result [6]: binds

Other lines, results leading:

binding result [2]: binds
binding result [3]: binds
B2: His-tagged CHC22 TxD (domain or fragment)
chain: WAQSVELCKKDHLYKDAMQHAAESRDAELAQKLLQWFLEEGKRECFAACLFTCYDLLRPDMVLELAWRHNLVDLAMPYFIQVMREYLSKVDKLDALESLRKQEEHVTEPAPLVFDFDGHE

binding result [7]: binds
binding result [8]: binds
B4: GST-GGA2-HE (domain or fragment)
chain: GRVTFGNRVTSSLGDIPVSRVFQNPAGCMKTCPLIDLEVDNGPAQMGTVVPSLLHQDLAALGISDAPVTGMVSGQNCCEEKRNPSSSTLPGGGVQNPSADRNLLDLLSAQPAPCPLNYVSQKSVPKEVPPGTKSSPGWSWEAGPLAPSPSSQNTPLAQVFVPLESVKPSSLPPLIVYDRNGFRILLHFSQTGAPGHPEVQVLLLTMMSTAPQPVWDIMFQVAVPKSMRVKLQPASSSKLPAFSPLMPPAVISQMLLLDNPHKEPIRLRYKLTFNQGGQPFSEVGEVKDFPDLAVLGAA
